The values below come from article doi:10.1101/2021.08.25.457676, “Binding of AP endonuclease-1 to G-quadruplex DNA depends on the N-terminal domain, Mg2+ and ionic strength”.

Series [1] concerns the target T1, D210A-APE1 (Homo sapiens, UniProt P27695 1-318, D210A). The series is described as follows: fluorescence anisotropy; 140 mM K+; 20 mM Tris pH 7.4, 50 mM KOAc (or 140 mM K+ / 50 mM Li+), 0, 1 or 10 mM Mg(OAc)2, 1 mM DTT, 22 °C, 100 nM FAM-DNA, APE1 0-5000 nM. The settings on record: protein: recombinant; tags: His (pET28HIS-hAPE1); label: 5' FAM; intramolecular parallel G4 in K+; unfolded in Li+.

Series [2] concerns the target Δ33-D210A-APE1 (Homo sapiens, UniProt P27695 34-318, D210A;del1-33). Description: fluorescence anisotropy; 10 mM Mg2+, 50 mM K+; 20 mM Tris pH 7.4, 50 mM KOAc (or 140 mM K+ / 50 mM Li+), 0, 1 or 10 mM Mg(OAc)2, 1 mM DTT, 22 °C, 100 nM FAM-DNA, APE1 0-5000 nM. Particulars: protein: recombinant; tags: His (pET28HIS-hAPE1); label: 5' FAM; intramolecular parallel G4 in K+; unfolded in Li+. (Polarisation of emitted light reports the rotation of a fluorescent probe.)

Series [3] concerns the target T1, D210A-APE1. The description is as above. Particulars: protein: recombinant; tags: His (pET28HIS-hAPE1); label: 5' FAM; intramolecular parallel G4 in K+; unfolded in Li+.
For series [4], the target named is APE1 (WT) (Homo sapiens, UniProt P27695 1-318). Description: fluorescence anisotropy; 0 Mg2+, EDTA, 50 mM K+; 20 mM Tris pH 7.4, 50 mM KOAc (or 140 mM K+ / 50 mM Li+), 0, 1 or 10 mM Mg(OAc)2, 1 mM DTT, 22 °C, 100 nM FAM-DNA, APE1 0-5000 nM. Particulars: protein: recombinant; tags: His (pET28HIS-hAPE1, Addgene 70757); label: 5' FAM; intramolecular parallel G4 in K+; unfolded in Li+.
APE1 (WT), sequence (P27695 whole entry): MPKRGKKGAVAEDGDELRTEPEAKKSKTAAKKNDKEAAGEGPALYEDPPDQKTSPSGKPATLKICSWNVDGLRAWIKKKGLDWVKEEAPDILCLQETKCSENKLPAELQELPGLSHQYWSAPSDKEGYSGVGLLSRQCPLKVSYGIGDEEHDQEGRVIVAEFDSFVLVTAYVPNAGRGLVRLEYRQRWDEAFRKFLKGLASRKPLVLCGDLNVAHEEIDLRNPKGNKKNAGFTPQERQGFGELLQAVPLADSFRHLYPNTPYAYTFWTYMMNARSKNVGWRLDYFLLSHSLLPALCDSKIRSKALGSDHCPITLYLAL

T1 sequence (P27695 whole entry D210A): as the sequence (P27695 whole entry) above, with D210A counted along it
Δ33-D210A-APE1, sequence (P27695 34-318 D210A): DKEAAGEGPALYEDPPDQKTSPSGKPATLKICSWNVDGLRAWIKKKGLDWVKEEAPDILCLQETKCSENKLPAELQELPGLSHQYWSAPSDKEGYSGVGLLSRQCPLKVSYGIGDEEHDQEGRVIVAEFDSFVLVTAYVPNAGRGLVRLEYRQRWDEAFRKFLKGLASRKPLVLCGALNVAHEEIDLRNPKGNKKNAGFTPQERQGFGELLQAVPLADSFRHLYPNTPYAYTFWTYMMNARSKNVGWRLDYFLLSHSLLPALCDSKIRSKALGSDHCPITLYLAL

B1: VEGF-4 (structured_DNA)
DNA: CGGGGCGGGCCGGGGGCGGGGT
Turning to B1, the Kd – broadly, the constant that tells how readily two partners part at equilibrium – in series [1] worked out at 20 nM; in series [2], 230 ± 40 nM; in series [3], 55 ± 4 nM; in series [4], 190 ± 50 nM.
